2 substances from US20120108455A1 can be followed below.

The target of assay [1] is FLAG-tag marker (Alpha Diagnostic Cat # FLAG15-R). Kind of assay: ELISA, 25% human serum in KRB, pH 7.4.
For assay [2] the target is unchanged. Put plainly: ELISA, 25% human serum in KRB, pH 6.0.
Assay [3] deals with Multifusion-tagged marker (Alpha Diagnostic Cat # MFPM20-C). Put plainly: ELISA, 25% human serum in KRB, pH 7.4.
For assay [4], the target named is Myc-tag marker (Alpha Diagnostic Cat # Myc15-R). Put plainly: ELISA, 25% human serum in KRB, pH 7.4.
For assay [5] the target is unchanged. Kind of assay: ELISA, 25% human serum in KRB, pH 6.0.

For the substance anti-FLAG antibody (Abcam, ab1238), the Kd in assay [1] was 0.224 µg/mL; in assay [2], 0.135 µg/mL.

As to anti-myc antibody (Abcam, #ab1326), the Kd in assay [3] came out at 0.02 µg/mL; in assay [4] it was 0.00798 µg/mL; in assay [5], 0.00773 µg/mL.
